Laboratory results from article PMC3436176.

Target: III-30A (human)
Test: ELISA

GPVIex (recombinant extracellular domain of GPVI), sequence (Q9HCN6 21-214): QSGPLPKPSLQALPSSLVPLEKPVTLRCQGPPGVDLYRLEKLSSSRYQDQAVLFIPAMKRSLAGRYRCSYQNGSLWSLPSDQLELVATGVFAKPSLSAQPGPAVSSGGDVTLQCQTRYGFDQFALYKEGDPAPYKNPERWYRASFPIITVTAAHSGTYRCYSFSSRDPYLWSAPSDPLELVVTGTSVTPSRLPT

Kd: 10.2 µM
Substance: GPVIex (recombinant extracellular domain of GPVI) (from UniProt Q9HCN6 21-214) (domain or fragment)
